# In US9283300B2, “Use of midkine protein and the protein-containing medical device” (GENERAL REGENERATIVES, LTD, priority 2009, dated 2016):
# B1: rhMK: recombinant human midkine mature protein (SEQ ID NO.1) expressed in E. coli and purified by ion-exchange chromatography (protein, listed as Homo sapiens)
# chain: MKKKDKVKKGGPGSECAEWAWGPCTPSSKDCGVGFREGTCGAQTQRIRCRVPCNWKKEFGADCKYKFENWGACDGGTGTKVRQGTLKKARYNAQCQETIRVTKPCTPKTKAKAKAKKGKGKD
# Key:
# [1] = system: cartilage of normal mouse (knee-joint articular, ear elastic, tracheal, intervertebral disc); assay: rhMK effect on cartilage thickness of normal mice (subcutaneous injection, histology); type: in vivo, C57BL/6J mice; conditions: for Thickness of cartilage, Ear elastic cartilage / Thickness of cartilage, Femoral condyle / Thickness of cartilage, Intervertbral disc (T2-3): normal mouse, mean ± SD
# Method: Method. 8-weeks-old male C57BL/6J mice were injected subcutaneously with recombinant human MK (rhMK) or control saline. The injection volume was 0.5 ml, given daily for a week. The mice were grouped (3 animals per group): Saline (NS) group, rhMK groups injected with various dosages at 10, 33, 100, 300, 900 μg/kg. Rats were injected with saline or rhMK (175 μg/kg) daily for a week. Rabbits were injected with saline or rhMK (92.5 μg/kg) daily for two week. Histological observation and evaluation. The knee joint tissues of all mice and rats were fixed in 10% (v/v) formalin for 1 day, the tissues of rabbits were fixed for 2 days. The fixed tissues were subjected to demineralization in liquid (7% AlCl3.6H2O, 5% methanoic acid, 8.5% HCl) 4 days for mouse and rats issues, and 10 days for rabbit tissues. The demineralized tissues were subjected to dehydration by gradient ethanol, and treated for transparency by xylene, and embedded in wax. Tissue sections were prepared by the paraffin slicing machine (Laica), and stained with hemotoxylin/eosin or Safranine O/fast green staining. Slides were observed under microscope and analyzed. The thickness of cartilage tissues were measured by the vernier caliper on microscope. Three tissue sections from each sample were measured and analyzed statisticaly. The distance between surface of cartilage to subchondral tide line was measured at ½ position of femoral condyle to denote the thickness of knee-joint cartilage. The thickness of cartilage at central part of ears was measured to denote the thickness of ear elastic cartilage. The distance between out surface of annulus to nucleus of the intervertebral disc was measured to denote the thickness of thoracic intervertebral disc (T2-3). The injection dose of rhMK: mice was injected subcutaneously 300 μg/kg daily for a week; rats were injected 175 μg/kg daily for a week; and New Zealand rabbits was injected 92.5 μg/kg daily for two weeks. Three animals per group were analyzed.
# [2] = system: ACLT-induced rat knee cartilage damage; assay: Osteoarthritis induced by anterior cruciate ligament transection (ACLT) of rat knee, intra-articular rhMK; type: in vivo, SD rats
# Method: Method. 7-week-old male SD rats (250-330 g weight) were anesthetized with 3% pentobarbital sodium (30 mg/kg) by intraperitoneal injection. After anesthesia, the skin was prepared on both sides of the knees. With conventional surgical sterilization and under sterile conditions, the skin and subcutaneous tissue of the knees was cut open from the middle of front knee. The joint capsule was cut along the inner side of the white patellar tendon resulting in patellar dislocation. The anterior cruciate ligament was identified and cut with ophthalmic scissors. The knee was straightened, the patella was relocated, and the wound was sutured layer by layer. Amikacin (100,000 U/ml, injection concentration of 10 mg/kg, a dose of 1 μl/10 g body weight) was injected every day for 4 days to prevent the wound site infection. 14 weeks after the surgery, saline or rhMK was injected into the knee-articular cavity. The rats in sham group without ACLT surgery were not treated; The rats in the ACLT/saline group were injected with 100 μl saline; The rats in ACLT/rhMK-L group were injected with 100 μl rhMK (58.3 μg/kg); In ACLT/rhMK-H group, 100 μl rhMK (525 μg/kg) was given. The injections were given three times one week and continued for two weeks. The rats were maintained in cages with free movement. The rats were sacrificed 2 or 6 weeks after the initiation of the treatments. […]
# [3] = system: rat primary articular chondrocyte; assay: MTT proliferation assay, primary chondrocytes in monolayer; type: cell-based; conditions: for light absorbance at 490 nm in MTT assay: Articular chondrocyte, 48 h, mean ± SD
# Method: (§1) 1. Preparation of primary chondrocyte. The 8-week-old male SD rats were sacrificed under sterile conditions. The articular cartilage, fibrocartilage and elastic cartilage tissue were isolated from the femur joints, meniscus and outer ear respectively using a scalpel. The isolated cartilage were cut into small pieces, washed twice with phosphate buffered saline (PBS), and digested with trypsin (0.25% (w/v) trypsin/0.02% (w/v) EDTA) at 37° C. for 30 min. The articular cartilage and elastic cartilage were further digested with 0.2% type II collagenase for additional 16 h, and the fibrocartilage were further digested with 0.15% type I collagenase for additional 16 h. After digestion, three chondrocytes were passed through 100 μm filter (Falcon, USA) into 15 ml centrifuge tubes, centrifuged at room temperature at 2000 rpm for 5 min. Cells were resuspended in DMEM containing 10% FBS (fetal bovine serum). Trypan blue staining of the freshly isolated cells was used to monitor the percentage of live cells under the microscope. When the number of live cells is more than 95%, it was used for subsequent experiments.
# 2. MTT assay. Three types of primary chondrocytes were suspended at a density of 5×10^4 cells/ml in DMEM containing 10% FBS. Cells were seeded into a 96-well plate (100 μl per well) and cultured at 37° C. under 5% CO2 for 48 h. The cells were washed with serum-free DMEM medium once. Different concentrations of rhMK (0.5, 1.0, 3.0, 5.0, 9.0 μg/ml) in DMEM (containing 0.5% FBS) were added to each well and the cells were cultured for additional 48 h. After incubation, the medium was replaced with 100 μl serum-free DMEM medium and 20 μl MTT solution (0.5 mg/ml, in PBS), incubated at 37° C. under 5% CO2 for 4 h. After removing the liquid, 120 μl DMSO was added to dissolve the MTT crystals by shaking for 1 min on a micro-plate oscillator. Light absorbance at 490 nm was measured using a microplate reader (BIO-TEK, USA).
# rat primary chondrocytes = assay: Serum-free culture of chondrocytes; type: cell-based; conditions: for promotion of cell expansion over the control cultures without rhMK: serum-free medium after 24 h in DMEM with 10% FBS
# Method: as §1
# 4. Serum-free culture. The primary chondrocytes were cultured with DMEM containing 10% FBS for 24 h and washed with serum-free culture medium once. The cells were further cultured with DMEM medium with ITS+1 (composed of insulin-transferrin-selenium, Sigma, USA). […] Cell medium was changed every two days. When cells grew to the confluence of 85% to 90%, they were collected by trypsin-digestion and subcultured as previously described.
# [4] = Mouse, rhMK 300 μg/kg s.c. daily for a week
# [5] = rhMK 10 μg/kg s.c. daily for one week
# [6] = rhMK 33 μg/kg s.c. daily for one week
# [7] = rhMK 100 μg/kg s.c. daily for one week
# [8] = rhMK 300 μg/kg s.c. daily for one week
# [9] = rhMK 900 μg/kg s.c. daily for one week
molecule,measurement,setting,value
B1,"Cartilage thickness, Ear",[1]; [4],58.5 ± 19.6 µm
same,"Cartilage thickness, Femoral condyle",[1]; [4],195 ± 9.9 µm
same,"Cartilage thickness, Intervertbral disc (T2-3)",[1]; [4],201 ± 17.2 µm
same,"Cartilage thickness, Trachea",[1]; [4],114 ± 18 µm
same,effective dose that promoted the growth of all three categories of cartilages,"[1]; mice, s.c. daily for a week",300 µg/kg/day
same,"minimum effective dose, articular cartilage and ear elastic cartilage","[1]; mice, s.c. daily for a week",10 µg/kg/day
same,"Thickness of cartilage, Ear elastic cartilage",[1]; [5],47.6 ± 4.7 μm
same,"Thickness of cartilage, Femoral condyle",[1]; [5],152 ± 2.7 μm
same,"Thickness of cartilage, Intervertbral disc (T2-3)",[1]; [5],193.8 ± 25.2 μm
same,"Thickness of cartilage, Ear elastic cartilage",[1]; [6],46.2 ± 5.6 μm
same,"Thickness of cartilage, Femoral condyle",[1]; [6],156.4 ± 8.1 μm
same,"Thickness of cartilage, Intervertbral disc (T2-3)",[1]; [6],206.2 ± 29.4 μm
same,"Thickness of cartilage, Ear elastic cartilage",[1]; [7],48.9 ± 5.5 μm
same,"Thickness of cartilage, Femoral condyle",[1]; [7],172.4 ± 11.1 μm
same,"Thickness of cartilage, Intervertbral disc (T2-3)",[1]; [7],193.8 ± 3.1 μm
same,"Thickness of cartilage, Ear elastic cartilage",[1]; [8],58.5 ± 19.6 μm
same,"Thickness of cartilage, Femoral condyle",[1]; [8],195.3 ± 9.9 μm
same,"Thickness of cartilage, Intervertbral disc (T2-3)",[1]; [8],200.7 ± 17.2 μm
same,"Thickness of cartilage, Ear elastic cartilage",[1]; [9],51.6 ± 5.6 μm
same,"Thickness of cartilage, Femoral condyle",[1]; [9],200.0 ± 7.0 μm
same,"Thickness of cartilage, Intervertbral disc (T2-3)",[1]; [9],217.1 ± 6.0 μm
same,histological scores,"[2]; ACLT/rhMK groups (58.3 and 525 μg/kg intra-articular) versus ACLT/saline group, P<0.05 Kruskal-wallis Test",statistically lower than that of the ACLT/saline group
same,regenerated cartilage layer thickness (histology),"[2]; ACLT/rhMK groups versus ACLT/saline group, 18 weeks after ACLT surgery",significantly thicker than that of ACLT/saline group
same,light absorbance at 490 nm in MTT assay,[3]; rhMK 0.5 μg/ml,0.33 ± 0.02
same,light absorbance at 490 nm in MTT assay,[3]; rhMK 1.0 μg/ml,0.40 ± 0.01
same,light absorbance at 490 nm in MTT assay,[3]; rhMK 3.0 μg/ml,0.38 ± 0.01
same,light absorbance at 490 nm in MTT assay,[3]; rhMK 5.0 μg/ml,0.30 ± 0.01
same,light absorbance at 490 nm in MTT assay,[3]; rhMK 9.0 μg/ml,0.39 ± 0.01
same,"lowest effective dose of rhMK (proliferation, MTT)","[3]; articular chondrocytes, monolayer",1 µg/mL
same,promotion of cell expansion over the control cultures without rhMK,rat primary chondrocytes; passage 1,34%
same,promotion of cell expansion over the control cultures without rhMK,rat primary chondrocytes; passage 2,51%
same,promotion of cell expansion over the control cultures without rhMK,rat primary chondrocytes; passage 3,18%
same,cell attachment and proliferation in serum-free medium,"rat primary chondrocytes; three types of chondrocytes cultured directly in serum-free medium, rhMK 3 μg/ml",did not make the cell attachment and proliferation
